Laboratory results from patent US20120058906A1 (published 2012).

Legend:
[1] = biological target: T1, rHuman CD44/Fc Chimera, CF (R&D Systems Cat#3660-CD) (human, UniProt P16070 21-220); assay: MSD ECL multi-spot plate, antigen immobilized; Fab 1.6 nM; blank spot 565;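 note: blank spot per well as comparator with Hit at signal to blank ratio of 4 or more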
T1 construct: Purchased Fc chimera; not shown: Fc portion of the purchased chimera

[2] = biological target: T2, Recombinant Human DLL4 (R&D Systems Cat#1506-D4/CF) (human, UniProt Q9NR61 27-524); assay: as above
T2 construct: Purchased recombinant protein; also called delta-like protein 4

[3] = biological target: T3, rHuman EGF R/Fc Chimera, CF (R&D Systems Cat#344-ER) (human, UniProt P00533 25-645); assay: as above
T3 construct: Purchased Fc chimera; not shown: Fc portion of the purchased chimera

[4] = biological target: T4, rHuman Erythropoietin R/Fc Chimera, CF (R&D Systems Cat#963-ER) (human, UniProt P19235 25-250); assay: as above
T4 construct: Purchased Fc chimera; also called EPO R/Fc; Epo R; not shown: Fc portion of the purchased chimera
T4 sequence: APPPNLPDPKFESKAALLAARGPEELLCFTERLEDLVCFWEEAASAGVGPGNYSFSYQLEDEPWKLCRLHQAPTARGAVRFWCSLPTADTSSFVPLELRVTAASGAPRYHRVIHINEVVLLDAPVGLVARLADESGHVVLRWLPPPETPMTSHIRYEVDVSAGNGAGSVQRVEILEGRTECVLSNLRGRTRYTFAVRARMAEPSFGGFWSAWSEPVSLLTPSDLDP

[5] = biological target: T5, rHuman ErbB2/Fc Chimera, CF (R&D Systems Cat#1129-ER) (human, UniProt P04626 23-652); assay: as above
T5 construct: Purchased Fc chimera; also called HER2/neu; not shown: Fc portion of the purchased chimera

[6] = biological target: T6, rHuman P-Cadherin/Fc Chimera, CF (R&D Systems Cat#861-PC) (human, UniProt P22223 108-654); assay: as above
T6 construct: Purchased Fc chimera; not shown: Fc portion of the purchased chimera

[7] = biological target: T7, rHuman Notch-1/Fc Chimera, CF (R&D Systems Cat#3647-TK) (human, UniProt P46531 19-526); assay: as above
T7 construct: Purchased Fc chimera; not shown: Fc portion of the purchased chimera

[8] = biological target: T8, rHuman IGF-1 sR (IGF-1 sR), CF (R&D Systems Cat#391-GR) (human, UniProt P08069 31-932); assay: as above
T8 construct: Purchased soluble receptor; also called insulin-like growth factor-1 soluble receptor; IGF-R1

[9] = biological target: T9, rHuman HGF R/c-MET/Fc Chimera, CF (R&D Systems Cat#358-MT/CF) (human, UniProt P08581 25-932); assay: as above
T9 construct: Purchased Fc chimera; also called HGF R/Fc; not shown: Fc portion of the purchased chimera

[10] = biological target: T1, rHuman CD44/Fc Chimera, CF (R&D Systems …); assay: MSD ECL multi-spot plate, antigen immobilized; Fab 200 nM; blank spot 529
[11] = biological target: T2, Recombinant Human DLL4 (R&D Systems …); assay: as above
[12] = biological target: T3, rHuman EGF R/Fc Chimera, CF (R&D …); assay: as above
[13] = biological target: T4, rHuman Erythropoietin R/Fc Chimera, CF …; assay: as above
[14] = biological target: T5, rHuman ErbB2/Fc Chimera, CF (R&D …); assay: as above
[15] = biological target: T6, rHuman P-Cadherin/Fc Chimera, CF (R&D …); assay: as above
[16] = biological target: T7, rHuman Notch-1/Fc Chimera, CF (R&D …); assay: as above
[17] = biological target: T8, rHuman IGF-1 sR (IGF-1 sR), CF (R&D …); assay: as above
[18] = biological target: T9, rHuman HGF R/c-MET/Fc Chimera, CF (R&D …); assay: as above
[19] = biological target: T10, rHuman ErbB2/Fc Chimera, CF (R&D Systems Cat#1129-ER) (human, UniProt P04626 23-652); assay: ECL (MSD multi-spot), antigen spotted on plate; Fab 22 nM; blank spot 289;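 note: blank spot per well as comparator with Hit at signal to blank ratio of 4 or more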
T10 construct: Bought reagent; also called HER2/neu; human epidermal growth factor 2 receptor; Fc part of the bought chimera not given

[20] = biological target: T11, rHuman CD44/Fc Chimera, CF (R&D Systems Cat#3660-CD) (human, UniProt P16070 21-220); assay: as above
T11 construct: Bought reagent; Fc part of the bought chimera not given

B1: Fab VH5-51_IGHD5-18*01>3_IGHJ4*01_G100K & V3-4_IGLJ1*01 (Fab, V domains shown)
VH: EVQLVQSGAEVKKPGESLKISCKGSGYSFTSYWIGWVRQMPGKGLEWMGIIYPGDSDTRYSPSFQGQVTISADKSISTAYLQWSSLKASDTAMYYCARRKYSYGYDYFDYWGQGTLVTVSS
VL: QTVVTQEPSFSVSPGGTVTLTCGLSSGSVSTSYYPSWYQQTPGQAPRTLIYSTNTRSSGVPDRFSGSILGNKAALTITGAQADDESDYYCVLYMGSGISYVFGTGTKVTVL
notes: It was expressed as a Fab: CH1 with tags from Plasmid A and lambda CL from Plasmid E; also called Fab No. 22
- ECL signal [1]: 938 ECL signal
- ECL signal [2]: 2420 ECL signal
- ECL signal [3]: 1180 ECL signal
- ECL signal [4]: 899 ECL signal
- ECL signal [5]: 1320 ECL signal
- ECL signal [6]: 811 ECL signal
- ECL signal [7]: 816 ECL signal
- ECL signal [8]: 1440 ECL signal
- ECL signal [9]: 1440 ECL signal

B2: Fab VH5-51_IGHD5-18*01>3_IGHJ4*01_G100R & V3-4_IGLJ1*01 (Fab, V domains shown)
VH: EVQLVQSGAEVKKPGESLKISCKGSGYSFTSYWIGWVRQMPGKGLEWMGIIYPGDSDTRYSPSFQGQVTISADKSISTAYLQWSSLKASDTAMYYCARRRYSYGYDYFDYWGQGTLVTVSS
VL: QTVVTQEPSFSVSPGGTVTLTCGLSSGSVSTSYYPSWYQQTPGQAPRTLIYSTNTRSSGVPDRFSGSILGNKAALTITGAQADDESDYYCVLYMGSGISYVFGTGTKVTVL
notes: It was expressed as a Fab: CH1 with tags from Plasmid A and lambda CL from Plasmid E; also called Fab No. 23
- ECL signal [10]: 895 ECL signal
- ECL signal [11]: 29800 ECL signal
- ECL signal [12]: 1020 ECL signal
- ECL signal [13]: 1180 ECL signal
- ECL signal [14]: 1450 ECL signal
- ECL signal [15]: 815 ECL signal
- ECL signal [16]: 1330 ECL signal
- ECL signal [17]: 1110 ECL signal
- ECL signal [18]: 1160 ECL signal

B3: Fab VH1-46_IGHD3-10*01_IGHJ4*01 & B3_IGKJ1*01 (Fab, V domains shown)
VH: QVQLVQSGAEVKKPGASVKVSCKASGYTFTSYYMHWVRQAPGQGLEWMGIINPSGGSTSYAQKFQGRVTMTRDTSTSTVYMELSSLRSEDTAVYYCAREYYYGSGSYYNDYFDYWGQGTLVTVSS
VL: not shown
notes: also called IGHV1-46*01
- ECL signal [19]: 363
- ECL signal [20]: 317
